Results on 3 substances are retold here after patent publication US20070118934A1.

Assay [1] addresses human rhinovirus serotype HRV-39. As to the kind of experiment: cell-based or functional assay.
Assay [2] shares this target.
The target of assay [3] is mouse (anti-human ICAM) monoclonal antibody.

In the case of “IC1-5D/IgA (ICAM/IgA fusion, gift of Dr. Tim Springer; Martin et al. 1993) (from UniProt P05362 28-480; P01876 103-353) (Fc fusion)”, in assay [1], the IC50, cytopathic effect (CPE) assay, HRV-39 on HeLa S3 cells turned out to be 0.12 µg/mL and the fold lower IC50 than soluble ICAM-1, CPE assay was determined as 11.3 fold.
ICAM-IgA (Fc fusion) returned an IC50 (read off the curve) in assay [2] of 3 nM.
As for “soluble human ICAM-1 (from UniProt P05362 28-480) (receptor)”, the IC50 (read off the curve) in assay [2] came to 40 nM; in assay [3] it was 0.8 µg/mL. Moreover, the IC50, cytopathic effect (CPE) assay, HRV-39 on HeLa S3 cells in assay [1] turned out to be 1.35 µg/mL.
